Sequences and labels used below:
B1: 1C4-H1K2-IgG4 (antibody, V domains shown)
VH: QVQMVQSGAEVKKPGASVKLSCKASGFTFSSSYINWLRQAPGQRLEWMGWIFAGTGGTYYNQKFTGRVTITRDTSASTAYMELSSLRSEDTAIYYCARHSPRATLFDFWGQGTTLTVSS
VL: EIVLTQSPATLSLSPGERATLSCRASSSVNHMHWYQQKPGQAPRALIYATSNLASGIPARFSGSGSGTSFTLTISSLEPEDFATYYCQQWSSNPYTFGGGTKLEIK
notes: humanized
B2: 1C4-H2K2-IgG4 (antibody, V domains shown)
VH: QVQMVQSGAEVKKPGASVKLSCKASGFTFSSSYINWLRQAPGQSLEWIGWIFAGTGGTYYNQKFTGRVQITRDTSASTAYMELSSLRSEDTAIYYCARHSPRATLFDFWGQGTTLTVSS
VL: EIVLTQSPATLSLSPGERATLSCRASSSVNHMHWYQQKPGQAPRALIYATSNLASGIPARFSGSGSGTSFTLTISSLEPEDFATYYCQQWSSNPYTFGGGTKLEIK
notes: humanized
B3: 1C4-H2K4-IgG4 (antibody, V domains shown)
VH: QVQMVQSGAEVKKPGASVKLSCKASGFTFSSSYINWLRQAPGQSLEWIGWIFAGTGGTYYNQKFTGRVQITRDTSASTAYMELSSLRSEDTAIYYCARHSPRATLFDFWGQGTTLTVSS
VL: EIVLTQSPATLSASPGERVTMSCRASSSVNHMHWYQQRPGFSPRAWIYATSNLASGIPARFSGSGSGTSYSLTISSLEPEDFATYYCQQWSSNPYTFGGGTKLEIK
notes: humanized
B4: 1C4-H3K2-IgG4 (antibody, V domains shown)
VH: QVQMVQSGAEVKKPGASVKLSCKASGFTFSSSYINWLRQAPGQSLEWIGWIFAGTGGTYYNQKFTGRAQITRDTSASTAYMELSSLRSEDTAIYYCARHSPRATLFDFWGQGTTLTVSS
VL: EIVLTQSPATLSLSPGERATLSCRASSSVNHMHWYQQKPGQAPRALIYATSNLASGIPARFSGSGSGTSFTLTISSLEPEDFATYYCQQWSSNPYTFGGGTKLEIK
notes: humanized
B5: 1C4-H2K1-IgG4 (antibody, V domains shown)
VH: QVQMVQSGAEVKKPGASVKLSCKASGFTFSSSYINWLRQAPGQSLEWIGWIFAGTGGTYYNQKFTGRVQITRDTSASTAYMELSSLRSEDTAIYYCARHSPRATLFDFWGQGTTLTVSS
VL: EIVLTQSPATLSLSPGERATLSCRASSSVNHMHWYQQKPGQAPRALIYATSNLASGIPARFSGSGSGTSFTLTISSLEPEDFAVYYCQQWSSNPYTFGGGTKLEIK
notes: humanized
B6: 1C4-H3K4-IgG4 (antibody, V domains shown)
VH: QVQMVQSGAEVKKPGASVKLSCKASGFTFSSSYINWLRQAPGQSLEWIGWIFAGTGGTYYNQKFTGRAQITRDTSASTAYMELSSLRSEDTAIYYCARHSPRATLFDFWGQGTTLTVSS
VL: EIVLTQSPATLSASPGERVTMSCRASSSVNHMHWYQQRPGFSPRAWIYATSNLASGIPARFSGSGSGTSYSLTISSLEPEDFATYYCQQWSSNPYTFGGGTKLEIK
notes: humanized
B7: 1C4-H4K4-IgG4 (antibody, V domains shown)
VH: QGQMVQSGAEVKKPGASVKLSCKTSGFTFSSSYINWLRQAPGQSLEWIAWIFAGTGGTYYNQKFTGRAQLTVDTSASTAYMELSSLRSEDTAIYYCARHSPRATLFDFWGQGTTLTVSS
VL: EIVLTQSPATLSASPGERVTMSCRASSSVNHMHWYQQRPGFSPRAWIYATSNLASGIPARFSGSGSGTSYSLTISSLEPEDFATYYCQQWSSNPYTFGGGTKLEIK
notes: humanized
B8: 1C4-H4K3-IgG4 (antibody, V domains shown)
VH: QGQMVQSGAEVKKPGASVKLSCKTSGFTFSSSYINWLRQAPGQSLEWIAWIFAGTGGTYYNQKFTGRAQLTVDTSASTAYMELSSLRSEDTAIYYCARHSPRATLFDFWGQGTTLTVSS
VL: EIVLTQSPATLSLSPGERATMSCRASSSVNHMHWYQQKPGFSPRAWIYATSNLASGIPARFSGSGSGTSFTLTISSLEPEDFATYYCQQWSSNPYTFGGGTKLEIK
notes: humanized
B9: 1C4-H1K3-IgG4 (antibody, V domains shown)
VH: QVQMVQSGAEVKKPGASVKLSCKASGFTFSSSYINWLRQAPGQRLEWMGWIFAGTGGTYYNQKFTGRVTITRDTSASTAYMELSSLRSEDTAIYYCARHSPRATLFDFWGQGTTLTVSS
VL: EIVLTQSPATLSLSPGERATMSCRASSSVNHMHWYQQKPGFSPRAWIYATSNLASGIPARFSGSGSGTSFTLTISSLEPEDFATYYCQQWSSNPYTFGGGTKLEIK
notes: humanized
B10: 1C4-H4K2-IgG4 (antibody, V domains shown)
VH: QGQMVQSGAEVKKPGASVKLSCKTSGFTFSSSYINWLRQAPGQSLEWIAWIFAGTGGTYYNQKFTGRAQLTVDTSASTAYMELSSLRSEDTAIYYCARHSPRATLFDFWGQGTTLTVSS
VL: EIVLTQSPATLSLSPGERATLSCRASSSVNHMHWYQQKPGQAPRALIYATSNLASGIPARFSGSGSGTSFTLTISSLEPEDFATYYCQQWSSNPYTFGGGTKLEIK
notes: humanized
B11: 1C4-H1K4-IgG4 (antibody, V domains shown)
VH: QVQMVQSGAEVKKPGASVKLSCKASGFTFSSSYINWLRQAPGQRLEWMGWIFAGTGGTYYNQKFTGRVTITRDTSASTAYMELSSLRSEDTAIYYCARHSPRATLFDFWGQGTTLTVSS
VL: EIVLTQSPATLSASPGERVTMSCRASSSVNHMHWYQQRPGFSPRAWIYATSNLASGIPARFSGSGSGTSYSLTISSLEPEDFATYYCQQWSSNPYTFGGGTKLEIK
notes: humanized
B12: 1C4-H3K3-IgG4 (antibody, V domains shown)
VH: QVQMVQSGAEVKKPGASVKLSCKASGFTFSSSYINWLRQAPGQSLEWIGWIFAGTGGTYYNQKFTGRAQITRDTSASTAYMELSSLRSEDTAIYYCARHSPRATLFDFWGQGTTLTVSS
VL: EIVLTQSPATLSLSPGERATMSCRASSSVNHMHWYQQKPGFSPRAWIYATSNLASGIPARFSGSGSGTSFTLTISSLEPEDFATYYCQQWSSNPYTFGGGTKLEIK
notes: humanized
B13: 1C4-H4K1-IgG4 (antibody, V domains shown)
VH: QGQMVQSGAEVKKPGASVKLSCKTSGFTFSSSYINWLRQAPGQSLEWIAWIFAGTGGTYYNQKFTGRAQLTVDTSASTAYMELSSLRSEDTAIYYCARHSPRATLFDFWGQGTTLTVSS
VL: EIVLTQSPATLSLSPGERATLSCRASSSVNHMHWYQQKPGQAPRALIYATSNLASGIPARFSGSGSGTSFTLTISSLEPEDFAVYYCQQWSSNPYTFGGGTKLEIK
notes: humanized
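Note: dissociation phase followed for 300 s, Kd derived as koff divided by kon from the kinetic fit.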

The assay deals with T1, Histidine-tagged human 4-1BB protein (h4-1BB-His) (human, UniProt Q07011 24-186).
T1 construct: not shown: histidine tag
The experiment in a line: SPR (Biacore T200), antibody on Protein A chip, h4-1BB-His injected. (In SPR one partner is held on a chip, and binding of the other changes the refractive index at the surface.)
For B1, binding was put at a Kd of 22 nM, the koff was 0.000605 s⁻¹ and the kon came out at 27500 M⁻¹ s⁻¹.

With B2, binding was characterised by a dissociation constant (Kd) of 25.1 nM, the koff worked out at 0.000646 s⁻¹ and the kon is 25800 M⁻¹ s⁻¹.

The molecule B3 came in with a Kd of 20.7 nM, a koff of 0.000521 s⁻¹ and a kon of 25200 M⁻¹ s⁻¹.

B4 yielded a Kd of 16.3 nM, a dissociation rate constant (koff) of 0.000453 s⁻¹ and a kon of 27700 M⁻¹ s⁻¹.

Regarding B5, the Kd was 19.4 nM, the koff was 0.000502 s⁻¹ and the kon was 25900 M⁻¹ s⁻¹.

On to B6, for which the affinity, expressed as Kd, was 15.9 nM; the koff worked out at 0.000476 s⁻¹; the kon was found to be 30000 M⁻¹ s⁻¹.

The molecule B7 came in with a Kd of 19.3 nM, a koff of 0.00056 s⁻¹ and a kon of 29000 M⁻¹ s⁻¹.

The molecule B8 showed a Kd of 16.9 nM, a koff of 0.000556 s⁻¹ and a kon of 32900 M⁻¹ s⁻¹.

In turn, B9 had a Kd of 21.8 nM, a koff of 0.000623 s⁻¹ and a kon of 28500 M⁻¹ s⁻¹.

The molecule B10 displayed a Kd of 16.6 nM, a koff of 0.00049 s⁻¹ and a kon of 29600 M⁻¹ s⁻¹.

B11 returned a Kd of 23.9 nM, a koff of 0.000614 s⁻¹ and a kon of 25700 M⁻¹ s⁻¹.

Regarding B12, the affinity, expressed as Kd, was 17.1 nM; the koff stood at 0.000533 s⁻¹; the kon amounted to 31200 M⁻¹ s⁻¹.

As to B13, the affinity, expressed as Kd, was 18.2 nM; the koff worked out at 0.000516 s⁻¹; the kon amounted to 28400 M⁻¹ s⁻¹.

A word on the Kd: it is the concentration at which binding is half-saturated. Lower therefore signals tighter binding. By koff is commonly meant the rate constant with which the complex falls apart. Read a high koff as a short-lived complex. As usually defined, the kon is the rate constant with which the complex forms. A low value points to slower complex formation.
